Experiments:
[1] = molecular target: native AdcAII of Streptococcus pneumoniae D39 (Streptococcus pneumoniae D39 (endogenous in D39 membranes)); assay: cross-linking + co-IP; S. pneumoniae D39 membrane preparations incubated with the thiol-cleavable cross-linker DTSSP (0.8 mM, 1 h) before the immuno-precipitation (x-IP); polyclonal antibody against AdcAII and protein A sepharose; immunoblot, signals quantified with Image J
[2] = molecular target: native AdcAII of Streptococcus pneumoniae D39 (Streptococcus pneumoniae D39 (endogenous in D39 membranes)); assay: co-IP; S. pneumoniae D39 membranes solubilised in 2% Triton X-100, not cross-linked (IP); polyclonal antibody against AdcAII and protein A sepharose; 50 mM HEPES, 150 mM NaCl, pH 8, washes with 2% Triton X-100; immunoblot, signals quantified with Image J

In the case of “native PhtD (polyhistidine triad protein D) of Streptococcus pneumoniae D39 (natural protein)”, the percentage of membrane-bound protein immuno-precipitated by AdcAII polyclonal antibodies [1] is reported as 12% and the percentage of membrane-bound protein immuno-precipitated by AdcAII polyclonal antibodies [2] is reported as 1.7%.
